Results: patent US20120219565A1 (Merck Sharp & Dohme, published 2012)
Where “and” joins values, the source holds several entries; their conditions need not be identical. Equal values may be shown once. Values belong to the binder of their own block, whether it stands above or below them.

Key:
[1] = molecular target: Recombinant human TSLP (expressed in HEK293 cells) (human) (UniProt Q969D9); experiment: KinExA 3000, solution equilibrium, 25 °C, particles coated with biotinylated human TSLP
[2] = molecular target: Cynomolgus monkey TSLP (expressed in HEK293 cells) (cynomolgus monkey); experiment: cell-based or functional assay
[3] = molecular target: Human TSLP purchased from R&D and expressed in E. coli (human) (UniProt Q969D9); experiment: cell-based or functional assay
[4] = molecular target: Recombinant human TSLP (expressed in HEK293 cells) (human) (UniProt Q969D9); experiment: cell-based or functional assay
[5] = molecular target: Cynomolgus monkey TSLP (expressed in HEK293 cells) (cynomolgus monkey); experiment: SPR, BIAcore T100, TSLP immobilised on CM5, antibody injected, bivalent analyte model, room temperature
[6] = molecular target: Recombinant human TSLP (expressed in HEK293 cells) (human) (UniProt Q969D9); experiment: as above
[7] = molecular target: T1, Human TSLP purchased from R&D and expressed in E. coli (human, UniProt Q969D9 29-159); experiment: SPR, BIAcore T100, R&D E. coli TSLP immobilised on CM5, antibody injected, bivalent analyte model, room temperature
T1 construct: Bought preparation; also called human (R&D)*; hTSLP*

[8] = molecular target: T2, Cynomolgus monkey TSLP (expressed in HEK293 cells) (cynomolgus monkey, UniProt A0A7N9CAT7 29-159); experiment: SPR, BIAcore T100, TSLP immobilised on CM5, antibody injected, bivalent analyte model, room temperature
T2 construct: also called cyno TSLP; cTSLP

[9] = molecular target: T3, Recombinant human TSLP (expressed in HEK293 cells) (human, UniProt Q969D9 29-159); experiment: KinExA 3000, solution equilibrium, 25 °C, particles coated with biotinylated human TSLP
T3 construct: In KinExA a biotinylated form coated the particles and the unlabelled form was in solution; also called hu TSLP; hTSLP

[10] = molecular target: T3, Recombinant human TSLP (expressed in …); experiment: cell-based or functional assay
[11] = molecular target: T1, Human TSLP purchased from R&D and …; experiment: cell-based or functional assay
[12] = molecular target: T2, Cynomolgus monkey TSLP (expressed in …); experiment: cell-based or functional assay
[13] = molecular target: T2, Cynomolgus monkey TSLP (expressed in …); experiment: SPR, BIAcore T100, TSLP immobilised on CM5, antibody injected, bivalent analyte model, 37 °C
[14] = molecular target: T1, Human TSLP purchased from R&D and …; experiment: SPR, BIAcore T100, R&D E. coli TSLP immobilised on CM5, antibody injected, bivalent analyte model, 37 °C

Kd [1]: 0.0011 nM | EC 50, inhibition of TSLP-induced proliferation of Ba/F3-TSLPR-IL7Ra cells [2]: 0.064 mg/L and 0.122 mg/L and 0.054 mg/L | EC 50, inhibition of TSLP-induced proliferation of Ba/F3-TSLPR-IL7Ra cells [3]: 0.083 mg/L | EC 50, inhibition of TSLP-induced proliferation of Ba/F3-TSLPR-IL7Ra cells [4]: 0.022 mg/L and 0.025 mg/L and 0.014 mg/L | Kd [5]: 0.159 nM | Kd [6]: 0.141 nM and 0.13 nM
B1: Parental rat antibody 23B12 (antibody, from a related filing, V domains shown)
VH: EEKLQQSGDDLVRPGAAVKMSCKASGYIFTDYAMHWVKQRPGQGLEWIGTFIPLLDTSDYNQNFKGRATLTADKSSNTAYMELSRLTSEDSAVYYCARMGVTHSYVMDAWGQGASVTVSS
VL: DIVLTQSPATLSVTPGESVSLSCRASQPISISVHWFQQKSNESPRLLIKFASQSISGIPSRFSGSGSGTDFTLNINRVESEDFSVYYCQQTFSLPYTFGTGTKLELKR

Kd [7]: 0.339 nM | Kd [8]: 0.138 nM and 0.08 nM and 0.115 nM and 0.127 nM | Kd [9]: 0.0032 nM | EC 50, inhibition of TSLP-induced proliferation of Ba/F3-TSLPR-IL7Ra cells [10]: 0.041 mg/L and 0.024 mg/L | EC 50, inhibition of TSLP-induced proliferation of Ba/F3-TSLPR-IL7Ra cells [11]: 0.137 mg/L and 0.215 mg/L | EC 50, inhibition of TSLP-induced proliferation of Ba/F3-TSLPR-IL7Ra cells [12]: 0.117 mg/L and 0.077 mg/L and 0.158 mg/L and 0.067 mg/L | Kd [13]: 0.381 nM | Kd [14]: 0.299 nM
B2: Humanized anti hu TSLP mAb 23B12 (comprising the heavy chain of SEQ ID NO:11 and the light chain of SEQ ID NO:12 of the instant application) (antibody, human IgG1, kappa, V domains shown)
VH: QVQLVQSGAEVKKPGASVKVSCKASGYIFTDYAMHWVRQAPGQGLEWMGTFIPLLDTSDYAQKFQGRVTMTADTSTSTAYMELRSLRSDDTAVYYCARMGVTHSYVMDAWGQGTLVTVSS
VL: EIVLTQSPGTLSLSPGERATLSCRASQPISISVHWYQQKPGQAPRLLIYFASQSISGIPDRFSGSGSGTDFTLTISRLEPEDFAVYYCQQTFSLPYTFGQGTKVEIKR
notes: Vector deposited as ATCC PTA-10482; also called Antibody 4
